From the RNAGym collection of RNA variant scans (doi:10.7554/elife.90254) come the findings set out here.

B1: OR4K15 (parent)
chain: GUUAACGGUCAUAGGCCAUGGAAACUAGGAGCACCAUUUCGCUGCCAGUGAAGAAAUGAACAAAGAAAAUCUGGGCCAGGCAGGCAUCAAAAGAAAUAGUCUUGCGCUCAACCAGAAAGUCUGUAAUCAUUUUAAGGGUA

This series covers variants of B1. The experiment in a line: self-cleavage, relative activity (ratio to wild type); higher = more cleavage; in vitro, sequencing; the parent is a self-cleaving ribozyme.
G14U U37C: the self-cleavage worked out at 1.24.
For A22U A116G, the self-cleavage amounted to 0.96.
Take A11G G93A: the self-cleavage came out at 2.04.
The same measure for U2C C45G: 1.29.
The same measure for A52C A118G: 0.72; for A4G A95C: 1.49.
With A13C U127C the figure was 0.65; with A13G C32U, 1.2.
Take A91U A118U: the self-cleavage amounted to 1.23.
With U49C A51C the figure was 0.34; with A86G A140U, 1.3.
Regarding A96U A98G, the self-cleavage worked out at 1.31.
With A60U U124C the figure was 0.94; with A86G A90G, 1.13.
With U43A U100C the figure was 2.43; with A95G C105A, 0.09; with G31U A92G, 1.27.
In the case of A30C A68G, the self-cleavage worked out at 0.67.
For A78U A91U, the self-cleavage came out at 0.8.
With A62U U130C the figure was 0.84.
In the case of A18G G65U, the self-cleavage came to 1.18.
With U26C A56G the figure was 1.43; with A82U A94C, 0.06; with U19C G31A, 0.83.
The same measure for A4G A69G: 1.31; for U9C A111U: 0.09.
As to U9A U122C, the self-cleavage was determined as 0.88.
As for G79A A94U, the self-cleavage was found to be 0.15.
The same measure for U43C A78U: 0.4.
As to C112G U122A, the self-cleavage came out at 0.05.
With G75A A95G, the self-cleavage was found to be 0.05.
In the case of U19A A116U, the self-cleavage is 0.43.
With A95G A96G the figure was 1.25; with C10U A63U, 0.69.
With A11U U127C the figure was 1.06.
The same measure for A69G C101U: 0.26; for U2A U72C: 0.48; for A62G U133C: 1.14.
Take A116G U120C: the self-cleavage worked out at 0.27.
Take A33U A51U: the self-cleavage was 0.89.
The same measure for A47G G58A: 0.52.
With U2A U139A the figure was 1.04.
With U38A U43C the figure was 1.3.
Turning to U97G U108C, the self-cleavage stood at 0.
As for U39A A134U, the self-cleavage was 2.44.
As for A47G U131C, the self-cleavage was 0.71.
On to A18U A92U, for which the self-cleavage came out at 1.25.
The same measure for A36G A67U: 1.85; for A11U U57C: 0.73; for A95C G137U: 1.17.
With C10U A55G the figure was 0.52; with A54U U70C, 0.53.
The same measure for U19A A91C: 1.85; for U12A A36C: 1.82; for A52U G83A: 1.64.
On to A11G U124C, for which the self-cleavage amounted to 0.34.
As to A13G U131C, the self-cleavage came out at 1.01.
For the variant U57A U108A, the self-cleavage amounted to 0.03.
On to A69G A135G, for which the self-cleavage was 0.07.
For the variant U39C A86U, the self-cleavage was determined as 2.13.
As for U12C A52G, the self-cleavage is 0.83.
With U19C A98G the figure was 0.25; with A18G C32U, 1.17; with A18C A118G, 1.22.
Turning to U12G U102C, the self-cleavage was determined as 1.11.
The same measure for A67G A95U: 1.41; for A24G A86U: 1.44.
With G8A A95G the figure was 1.52.
With U49C C109U, the self-cleavage is 0.18.
Regarding C42U U139A, the self-cleavage was determined as 2.
The same measure for U26C A134G: 1.05; for G115A C128U: 0.06.
A54G G75U: the self-cleavage worked out at 0.12.
Regarding A36C A135G, the self-cleavage was found to be 2.33.
With A129G U131C, the self-cleavage worked out at 1.38.
With U26C A51U, the self-cleavage is 1.69.
A30U U39A: the self-cleavage stood at 2.07.
With U43G U49C the figure was 2.01.
The same measure for A24G A54G: 1.12.
In the case of A78G A129U, the self-cleavage turned out to be 0.25.
With A64C U103A the figure was 0.14; with G83U U127C, 0.29.
Consider U57C U102A, for which the self-cleavage stood at 0.48.
As for A11G A129C, the self-cleavage was 0.66.
Consider A56G A68C, for which the self-cleavage came to 2.25.
Turning to A4G G15C, the self-cleavage was 1.28.
As to A24G A30U, the self-cleavage was determined as 1.29.
With A118C U130C the figure was 0.93; with A22G U103G, 0.05.
As to U3C A114G, the self-cleavage is 0.47.
The same measure for A18G C85U: 0.98.
Regarding A51U A117G, the self-cleavage amounted to 2.45.
With G21A C85G the figure was 0.64; with A52G U103A, 0.59.
With A52G A111C the figure was 0; with C76G A96U, 0.09.
Regarding U9C A47C, the self-cleavage worked out at 1.02.
With U39C C77A, the self-cleavage is 0.77.
The same measure for A30G C101A: 0.14; for U9A A36U: 1.2.
The same measure for U2A A47U: 0.78; for A33G G138A: 0.65.
With G44A A64G the figure was 1.36.
A52U A140G: the self-cleavage amounted to 0.56.
The same measure for G65A A126U: 0.76.
For A114G U124C, the self-cleavage was 0.07.
For the variant U3C A47U, the self-cleavage is 0.68.
The same measure for U2A G44C: 0.79; for U70C A98U: 0.72.
The same measure for A86G U120C: 0.35.
The same measure for U9C U132G: 1.94; for U9C A98U: 1.32; for A64U G79U: 0.17.
Regarding U3C A91U, the self-cleavage came out at 1.11.
The same measure for A56G A86G: 0.8; for A56G A86C: 1.48; for U57G A78U: 0.22.
In the case of A52G A59U, the self-cleavage came out at 1.28.
The same measure for A52G A59G: 1.13; for G7U U49C: 1.71.
With A22G A89C the figure was 1.28; with A13U A89G, 1.51.
Regarding A66G U132C, the self-cleavage stood at 0.6.
Consider A59C A60G, for which the self-cleavage was 0.56.
A51C U57G: the self-cleavage worked out at 1.26.
In the case of U2C U122G, the self-cleavage amounted to 1.35.
With A18U U39A the figure was 1.05.
The same measure for A13G C40U: 1.03; for A69G A118G: 0.98.
The same measure for U102A A116G: 0.18.
For A68G U127A, the self-cleavage was found to be 1.01.
The same measure for U19C A60G: 1.23; for A13G A82G: 0.47; for A54U U127C: 0.18.
As to A140G, the self-cleavage was 1.15.
With A36U C128A the figure was 1.18; with A116G A140C, 0.63; with A54G A116G, 0.75.
With A54G A116U the figure was 0.27; with U49C G119A, 1.6.
Take A51C A95G: the self-cleavage turned out to be 1.65.
C16U A69U: the self-cleavage was 0.66.
With A47G G138A the figure was 1.31; with A66G G137A, 2.07.
Regarding A55U U102A, the self-cleavage worked out at 1.44.
The same measure for A5U A78G: 0.44; for A125G A126G: 0.68.
Regarding C35U U103C, the self-cleavage came out at 0.29.
G93A A95G: the self-cleavage amounted to 2.26.
The same measure for A5G U127A: 2.43; for A63G A82G: 0.74.
On to U26A U39A, for which the self-cleavage turned out to be 0.92.
For C109U U130A, the self-cleavage was 0.25.
Regarding A36U A82U, the self-cleavage was found to be 0.31.
As to A52U A94G, the self-cleavage is 1.52.
With G44A U124A the figure was 1.15; with U39C A129U, 1.16; with A27G U38C, 1.12.
With A13G U133C, the self-cleavage was 1.84.
The same measure for U2A A68U: 0.46.
With G7A A36U the figure was 1.54.
The same measure for A36G U57C: 1.27.
For the variant U72C G138A, the self-cleavage worked out at 0.49.
For A22G A140G, the self-cleavage was 1.85.
With A56G A89U the figure was 1.09.
For G106C A129U, the self-cleavage came out at 0.
Take A91C A96G: the self-cleavage was determined as 1.39.
